Assay results taken from US20220389113A1, “BINDING PROTEINS TO CUB DOMAIN-CONTAINING PROTEIN (CDCP1)” (COMMONWEALTH SCIENTIFIC AND INDUSTRIAL RESEARCH ORGANISATION, priority 2019, published 2022).

Tests used:
[1] = test system: CDCP1-positive TKCC05 cells; experiment: Lindmo assay, immune-reactive fraction; format: binding, human; conditions: 3 h at 4° C.
Protocol: 10D7 and control IgG1κ were labelled with the positron-emitting radionuclide ^89Zr as described (Zeglis B M and Lewis J S (2015) J Vis Exp 96:52521). Yield and purity of the labelled antibodies were determined by radio-TLC and -HPLC (Agilent, Mulgrave, Australia). To assess the impact of radiolabelling on 10D7 binding, the immune-reactive fraction (IRF) of 10D7-^89Zr was determined by Lindmo assay as previously described (Burvenich I J et al (2016) J Nucl Med. 57(6):974-80). Briefly, serially diluted TKCC05 cells (5×10^6-0.156×10^6 cells) were incubated with various amounts of 10D7-^89Zr alone or in the presence of a saturating amount of unlabelled 10D7 antibody (700 nM). After incubation (3 h at 4° C.) cells were centrifuged and the radioactivity of the cell pellet and supernatant was determined using a Wizard 2480 gamma counter (Perkin Elmer, Milton, Australia) and immunoreactive fraction (IRF) was calculated as previously described (Tolmachev V, Orlova A, Andersson K. (2014) Methods Mol Biol. 1060:309-30; Burvenich I J et al (2016) J Nucl Med. 57(6):974-80).
To evaluate whether the ability of antibody 10D7 to disrupt cellular processes that promote PDAC in vitro can be harnessed to target this cancer in vivo, the inventors first evaluated the capacity of this antibody to detect PDAC xenografts in mice. […]

clear cell EOC PDX PH250 = conditions: mouse, in vivo
Protocol: Mouse experiments were approved by the University of Queensland Animal Ethics Committee. For PET/CT imaging female NOD.Cg-Prkdc^scid Il2rg^tmwil/SzJ mice (6-8 weeks; 4 per group; Jackson Laboratory, Bar Harbor, Me.) were injected intraperitoneally with cells dissociated from a previously described clear cell EOC PDX designated PH250 (Weroha S J, et al., (2014) Clin Cancer Res. 2014; 20(5):1288-97) (0.2 g/mouse of pelleted cell slurry). CDCP1 expression by PDX PH250 was assessed by immunohistochemical and Western blot analysis as described (He Y, et al., (2016) Oncogene. 35(4):468-78.). 10D7 and IgG1K control were labelled with the positron-emitting radionuclide ^89Zr as described (Zeglis B M, et al., (2015) J Vis Exp. (96): 52521)), and yield and purity determined by radio-TLC and -HPLC (Agilent, Mulgrave, Australia). […] PET image acquisition (30 minutes) was followed by CT for anatomical registration and attenuation correction, with images reconstructed and analyzed using the Inveon Research Workspace (Siemens). Ex vivo bio-distribution was assessed after the final imaging time point. Harvested tumour and organs, cleaned of blood, were weighed and radioactivity quantified using a PerkinElmer 2480 Automatic Gamma Counter (Perkin Elmer, Milton, Australia) and presented as % ID/g of tumour or tissue. […]

B1: ^89Zr-DFO-10D7 (conjugate)
VH: EVQLQQFGAELVKPGASVKISCKASGYSFSDFNIEWLKQSHGKSLEWIGDINPNYDSTNYNQKFKGRATLTVDKSSSTAYMEVRSLTSEDTAVYYCARLGYGYAMDYWGQGTSVTVSS
VL: NIVMTQSPQSMSMSVGERVTLSCKASENVGAYVSWFQQKPDQSPKLLILAASNRYTGVPARFIGSGSATDFTLTISSVQAEDLADYHCGQSYTYPYTFGGGTKLEIKRADAAPTVS
[1]
  immune-reactive fraction (IRF): 88.9%
Clear cell EOC PDX PH250
  percent injected dose per gram of tissue, tumour: 47.7±2.6 % ID/g
